How the values were obtained:
primary hepatocytes = assay: Glucose uptake assay (2DG6P) in primary hepatocytes; assay type: cell-based
Procedure: (§1) To verify that the glucose homeostasis is regulated through liver or hepatocytes by overexpression of Plac9 in an insulin-independent manner, an in vitro insulin secretion assay was performed on confluent pancreatic beta cells, MIN6, in each well treated by […] of Exendin-4 or different concentrations of recombinant Plac9 of mouse origin at 10, 100 and 1000 nM (n=8) and measured the insulin content of each well by a mouse insulin ELISA kit. […] A glucose uptake assay was performed on primary hepatocytes and hepatic cell line, HepG2, treated with different concentrations (from 0.125 or 0.25 to 1.0 μM) in the presence or absence of exogenous 10 nM insulin, and the results are shown in FIGS. 5B and 5C, respectively.

[1] = test system: STZ-induced diabetic mice; assay: Recombinant Plac9 in streptozotocin (STZ)-induced insulin-deficient diabetic mouse model, biometric data and glucose tolerance test; assay type: in vivo, C57BL/6J mice
Procedure: Turning to FIG. 3A, 8-week-old male C57BL/6J mice (n=8) which were fed with standard chow (STC) diet were treated with streptozotocin (STZ) for 5 days to induce diabetes. Similar to Example 1, 2 mg/kg (BW) of recombinant mPLAC9 was administered to the STZ-induced diabetic mice via i.p. injection once daily for 18 days (treatment group). In parallel, PBS was injected to STZ-induced diabetic mice for 18 days as a control group.
GTT was also performed at Day 5 and Day 15 in this STZ-induced diabetic model. […] Similar trend was observed between the treatment and control groups at Day 15 (FIGS. 3H-3I).

HFD-fed obese mice = assay: Recombinant Plac9 in high-fat diet (HFD)-induced obese, diabetic (DM2) mouse model, biometric data and glucose tolerance test; assay type: in vivo, C57BL/6J mice; conditions: vs PBS control
Procedure: Turning to FIG. 2A, 8-week-old male C57BL/6J mice (n=8) were fed with a high-fat diet (HFD) for 12 weeks to induce a diabetes mellitus type 2 (DM2) model and then treated with 2 mg/kg (per body weight; hereinafter as “BW”) of recombinant mouse Plac9 (synthesized and purified from E. coli expressing mouse Plac9 represented by SEQ ID NO: 2; hereinafter as “mPLAC9”) once daily via intraperitoneal (i.p.) injection for 18 days to evaluate its effects on glucose uptake and tolerance in an obese, diet-induced diabetic model. Body weight (FIG. 2B), fasting blood glucose level (FIG. 2C), feeding blood glucose level (FIG. 2D) and blood insulin level (FIG. 2E) were measured at the beginning of the i.p. injection and then once every 3 days until the end of the experiment (i.e., Day 3, 6, 9, 12, 15 and 18). Another group of HFD-fed mice was injected with PBS once daily and measured with the same biometric data as in the Plac9-injected group (treatment group) once every 3 days from the beginning of the injection until the end of the experiment.
Glucose tolerance test (GTT) was also performed in both the treatment and control groups at Day 0 and Day 15 of the experiment. […] At Day 15, the overall blood glucose level was also lower in the treatment group than that of the control group over the 90-minute time course (FIGS. 2H-2I).

[2] = test system: MIN6 pancreatic beta cells; assay: Glucose stimulated insulin secretion assay in MIN6 cells (mouse insulin ELISA); assay type: cell-based; conditions: 10, 100 and 1000 nM, n=8; FIG. 5A
Procedure: as §1

B1: mPLAC9: recombinant mouse Plac9 synthesized and purified from E. coli expressing mouse Plac9 represented by SEQ ID NO: 2 (protein, listed as Mus musculus)
chain: EWGQGPRDTPGRRAAESPSSPGDLAGSPGCDRHAAVQRRLDIMEETVEKTVEHLEAEVTGLLGLLEELASNLPTGPFSPKPDLLGDDGF
Primary hepatocytes; 0.125 to 1.0 μM, with or without 10 nM insulin, FIG. 5B
  glucose uptake: enhanced by Plac9 is in a dose-dependent manner
Primary hepatocytes; co-administration with 10 nM insulin, overall statement for liver or hepatocytes (primary hepatocytes and HepG2)
  glucose uptake on co-administration with insulin: further enhance the glucose uptake
[1]; 2 mg/kg BW i.p. once daily, 18 days, treatment vs PBS control, FIG. 3B
  change in body weight: similar
[1]; 2 mg/kg BW i.p. once daily, 18 days, treatment vs PBS control, FIG. 3C
  change in fasting glucose level: similar
[1]; 2 mg/kg BW i.p. once daily, 18 days, treatment vs PBS control, FIG. 3D
  change in feeding glucose level: similar
[1]; Day 0, 90-minute time course, vs PBS control, FIGS. 3F-3G
  overall blood glucose level in GTT: lower
[1]; Day 0 to Day 5, treatment vs PBS control, FIG. 3E
  blood insulin level: similar
[1]; from Day 5 till the end of the experiment, no change in control group, FIG. 3E
  blood insulin concentration: increased
[1]; till the end of the experiment, FIG. 3E
  restoration of blood insulin level to the level measured at Day 0: could not be restored
HFD-fed obese mice; 2 mg/kg BW i.p. once daily, 18 days, FIG. 2B
  body weight change: no obvious weight change
HFD-fed obese mice; 2 mg/kg BW i.p. once daily, 18 days, FIG. 2C
  fasting blood glucose level: no obvious changes
HFD-fed obese mice; 2 mg/kg BW i.p. once daily, 18 days, FIG. 2D
  feeding blood glucose level: no obvious changes
HFD-fed obese mice; Day 0, 90-minute time course, FIGS. 2F-2G
  blood glucose level in glucose tolerance test (GTT): more significantly reduced
HFD-fed obese mice; Day 15, 2 mg/kg BW i.p. once daily, FIG. 2E
  blood insulin concentration: reduced
HFD-fed obese mice; Day 15, 90-minute time course, FIGS. 2H-2I
  overall blood glucose level in glucose tolerance test (GTT): lower
[2]
  insulin secretion: does not induce insulin secretion

From patent publication US20250114431A1, “COMPOUND, COMPOSITION AND METHODS FOR LOWERING CIRCULATING GLUCOSE” (THE HONG KONG POLYTECHNIC UNIVERSITY, priority 2023, published 2025)
